Entries after “also recorded” stand apart in the source; their conditions may differ.
Legend:
ApoE−/− mice = experiment: Plasma oxLDL and LDL levels (ELISA) in ApoE−/− mice after 7 days of administration; type: in vivo
Source text: ApoE−/− mice were divided into two groups, the control group and the sDSS1 protein administration group. […] At the end of the administration, the plasma levels of oxLDL and LDL in mice were detected.
Experimental animal: ApoE−/− mice, 8-10 weeks old, male, were purchased from Nanjing Biomedical Research Institute of Nanjing University. The animals were housed in an animal room for one week before the experiment.
Experimental materials: sDSS1 protein, oxLDL ELISA kit (Wuhan Elabscience Biotechnology Co., Ltd., Article No.: E-EL-M0066c), LDL ELISA kit (Wuhan Elabscience Biotechnology Co., Ltd., product No.: E-EL-M1363c)
Experimental method: the ApoE−/− mice were randomly divided into two groups, a control group and a sDSS1 protein group. For 7 days, 200 μl of normal saline was intraperitoneally injected in control group once a day, and 10 mg/kg of the sDSS1 protein was intraperitoneally injected in sDSS1 protein group once a day. After 7 days of administration, the bloods of mice were collected, and plasma was separated with EDTA-Na as an anticoagulant. The plasma oxLDL level was measured by using the oxLDL ELISA kit, and the plasma LDL level was measured by the LDL ELISA kit.
100 μl of oxLDL standards or samples were added in each well, and incubated for 90 min at 37° C.; the liquid in the well was discarded, 100 μl of biotinylated oxLDL antibody working liquid was added, and incubated at 37° C. for 60 min; washing 3 times; 100 μl of enzyme binding working solution was added, and incubated at 37° C. for 30 min; washing 5 times; 90 μl of substrate solution was added, and incubated at 37° C. for 15 min; 50 μl of termination solution was added, and the OD value was immediately measured at 450 nm wavelength; a standard curve was established with standard products, and the oxLDL level of each sample was calculated according to the standard curve.
100 μl of LDL standards or samples were added into each well, and incubated for 90 min at 37° C.; the liquid in the well was discarded, 100 μl of biotinylated LDL antibody working liquid was added, and incubated at 37° C. for 60 min; washing 3 times; 100 μl of enzyme binding working liquid was added, and incubated at 37° C. for 30 min; washing 5 times; 90 μl of substrate solution was added, and incubated at 37° C. for 15 min; 50 μl of termination solution was added, and the OD value was immediately measured at 450 nm wavelength; a standard curve was established by using standard products, and the LDL level of each sample was calculated according to the standard curve. The oxLDL/LDL ratio=oxLDL concentration (ng/ml)÷LDL concentration (ng/ml) 5.2 Experimental Results

[1] = test system: human umbilical vein endothelial cells (HUVECs); experiment: Uptake of DiL-oxLDL by HUVEC cells (fluorescence microscope, flow cytometry); type: cell-based; settings: 10 μg/ml DiL-oxLDL, 5 h
Description: Experimental materials: sDSS1 protein, DiL-oxLDL (Thermo Fisher technology, Article No.: L34358), human umbilical vein endothelial cell (HUVEC) (PromoCell, Article No.: C-12200).
Experimental method: HUVEC cells were inoculated into a 6-well plate with 300000 cells per well. After 24 h of adherence, 1.5 ml 10 μg/ml DiL-oxLDL was added, or 1.5 ml 10 μg/ml DiL-oxLDL was added together with 2 μg/ml, 5 μg/ml, 10 μg/ml or 20 μg/ml of the sDSS1 protein. After incubation for 5 h in an incubator, the fluorescence signal in the cells was observed by a fluorescence microscope. The cells were digested with trypsin to form single cells for detecting the fluorescence intensity via flow cytometry.

B1: sDSS1 protein: sDSS1 protein produced by the company itself, purity more than 95%; sequence of human sDSS1 protein is SEQ ID NO:1 (protein, listed as Homo sapiens)
chain: MSEKKQPVDLGLLEEDDEFEEFPAEDWAGLDEDEDAHVWEDNWDDDNVEDDFSNQLRATVLLMILVCETPYGCYVLHQKGRMCSAFLCC
ApoE−/− mice; sDSS1 10 mg/kg (10 mpk) intraperitoneal once a day
  Plasma LDL level vs control group: no significant difference; also recorded: did not cause significant changes
ApoE−/− mice; sDSS1 10 mg/kg intraperitoneal once a day
  Plasma oxLDL/LDL ratio vs control group: significantly lower
ApoE−/− mice; sDSS1 30 mg/kg (30 mpk) intraperitoneal once a day
  Plasma LDL level vs control group: did not cause significant changes
ApoE−/− mice; sDSS1 30 mg/kg (30 mpk, high dose) intraperitoneal once a day
  Plasma oxLDL level vs control group: significantly reduced
ApoE−/− mice; sDSS1 high dose (30 mpk) intraperitoneal once a day
  Plasma oxLDL/LDL ratio vs control group: significantly lower
[1]; 2 μg/ml sDSS1 protein
  Fluorescence within HUVEC cells (flow cytometry): significantly weakened
  Uptake of oxLDL by HUVEC cells (flow cytometry statistics): reduced by half
[1]; 10 μg/ml sDSS1 protein
  Fluorescence within HUVEC cells (flow cytometry): significantly weakened
[1]; 2, 5, 10, 20 μg/ml sDSS1 protein
  Concentration dependence of the reduction of fluorescence / oxLDL uptake in HUVEC cells: concentration-dependent; also recorded: gradually weakened; also recorded: obviously dose-dependent

Reference: patent US12433934B2, “Methods and compositions for preventing and treating atherosclerosis and related diseases” (Shanghai Puyou Biomedical Co., Ltd., priority 2018, dated 2025)
